Target: microtubules (pig brain tubulin) (pig, UniProt P02550 1-451; Q767L7 1-444, Cy3 or Cy5 and biotin labels on a fraction of the tubulin | Cy3 or Cy5 and biotin labels on a fraction of the tubulin)
Sequence (P02550 other isoform, or with tags, fused parts or gaps, chain 1 of 2): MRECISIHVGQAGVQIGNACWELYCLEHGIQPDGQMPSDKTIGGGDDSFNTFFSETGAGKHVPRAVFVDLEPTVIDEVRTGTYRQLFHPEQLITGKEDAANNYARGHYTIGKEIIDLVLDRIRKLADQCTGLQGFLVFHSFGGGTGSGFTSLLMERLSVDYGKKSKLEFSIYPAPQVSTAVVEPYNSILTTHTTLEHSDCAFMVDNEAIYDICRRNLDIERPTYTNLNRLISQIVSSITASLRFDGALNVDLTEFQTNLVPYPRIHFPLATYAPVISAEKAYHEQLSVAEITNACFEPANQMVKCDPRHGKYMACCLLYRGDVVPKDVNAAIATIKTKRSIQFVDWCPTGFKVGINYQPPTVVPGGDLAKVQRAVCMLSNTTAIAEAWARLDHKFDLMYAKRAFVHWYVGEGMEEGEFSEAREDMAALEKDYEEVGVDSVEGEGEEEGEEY
Sequence (Q767L7 other isoform, or with tags, fused parts or gaps, chain 2 of 2): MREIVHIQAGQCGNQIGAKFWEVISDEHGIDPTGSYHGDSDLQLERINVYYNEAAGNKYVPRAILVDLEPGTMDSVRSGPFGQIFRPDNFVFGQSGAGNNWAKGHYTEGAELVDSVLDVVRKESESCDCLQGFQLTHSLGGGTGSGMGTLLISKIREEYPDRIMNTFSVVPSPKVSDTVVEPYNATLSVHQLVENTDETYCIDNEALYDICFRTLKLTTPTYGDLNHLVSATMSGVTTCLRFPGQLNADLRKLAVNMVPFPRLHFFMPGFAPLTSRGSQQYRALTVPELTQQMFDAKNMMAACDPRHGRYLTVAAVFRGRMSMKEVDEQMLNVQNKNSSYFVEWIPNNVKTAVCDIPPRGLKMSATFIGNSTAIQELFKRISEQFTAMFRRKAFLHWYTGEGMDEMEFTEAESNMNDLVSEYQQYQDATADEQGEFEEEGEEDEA

Kd: 279 nM
B1: NuMA Bonsai (other)
chain: MTLHATRGAALLSWVNSLHVADPVEAVLQLQDCSIFIKIIDRIHGTEEGQQILKQPVSERLDFVCSFLQKNRKHPSSPECLVSAQKVLEGSELELAKMTMLLLYHSTMSSKSPRDWEQFEYKIQAELAVILKFVLDHEDGLNLNEDLENFLQKAPVPSTCSSTFPEELSPPSHQAKREIRFLELQKVASSSSGNNFLSGSPASPMGDILQTPQFQMRRLKKQLADERSNRDELELELAENRKLLTEKDAQIAMMQQRIDRLALLNEKQAASPLEPKELEELRDKNESLTMRLHETLKQCQDLKTEKSQMDRKINQLSEENGDLSFKLREFASHLQQLQDALNELTEEHSKATQEWLEKQAQLEKELSAALQDKKCLEEKNEILQGKLSQLEEHLSQLQDNPPQEKGEVLGDVLQLETLKQEAATLAANNTQLQARVEMLETERGQQEAKLLAERGHFEEEKQQLSSLITDLQSSISNLSQAKEELEQASQAHGARLTAQVASLTSELTTLNATIQQQDQELAGLKQQAKEKQAQLAQTLQQQEQASQGLRHQVEQLSSSLKQKEQQLKEVAEKQEATRQDHAQQLATAAEEREASLRERDAALKQLEALEKEKAAKLEILQQQLQVANEARDSAQTSVTQAQREKAELSRKVEELQACVETARQEQHEAQAQVAELELQLRSEQQKATEKERVAQEKDQLQEQLQFQVATDALKSREPQAKPQLDLSIDSLDLSCEEGTPLSITSKLPRTQPDGTSVPGEPASPISQRLPPKVESLESLYFTPIPARSQAPLESSLDSLGDVFLDSGRKTRSARRRTTQIINITMTKKLDVEEPDSANSSFYSTRSAPASQASLRATSSTQSLARLGSPDYGNSALLSLPGYRPTTRSSARRSQAGVSSGAPPGRNSFYMGTCQDEPEQLDDWNRIAELQQRNRVCPPHLKTCYPLESRPSLSLGTITDEEMKTGDPQETLRRASMQPIQIAEGTGITTRQQRKRVSLEPHQGPGTPESKKATSCFPRPMTPRDRHEGRKQSTTEAQKKAAPASTKQADRRQSMAFSILNTPKKLGNSLLRRGASKKALSKASPNTRSGTRRSPRIATTTASAATAAAIGATPRAKGKAKH

— paper doi:10.1101/2024.11.26.625568 (2024)
